Here are results for ten molecules from US9527898B2, “Oxyntomodulin derivatives and pharmaceutical composition for treating obesity comprising the same” (Hanmi Science Co., Ltd., dated 2016).

The labels stand for the following.
B1: oxyntomodulin derivative of SEQ ID NO. 24 (peptide)
peptide: H[Aib]QGTFTSDYSKYLDEKRAKEFVQWLMNTC
modifications: also: possible ring formation not assignable from text
B2: oxyntomodulin derivative of SEQ ID NO. 13 (peptide)
peptide: HSQGTFTSDYSRYLDEEAVELFIEWLMNTK
B3: oxyntomodulin derivative of SEQ ID NO. 11 (peptide)
peptide: HGEGTFTSDLSRQMEEEAVRLFIEWAAHSQGTFTSDYSRYLDK
modifications: not fully specified (residue 1, N-terminus); also: N-terminal CA (4-imidazoacetyl), whether it replaces His1 not given here
B4: oxyntomodulin derivative of SEQ ID NO. 23 (peptide)
peptide: H[Aib]QGTFTSDYSKYLDEKRAKEFVCWLMNT
B5: oxyntomodulin derivative of SEQ ID NO. 30 (peptide)
peptide: H[Aib]QGTFTSDYAKYLDEKRAKEFVQWLMNTC
B6: oxyntomodulin derivative of SEQ ID NO. 25 (peptide)
peptide: H[Aib]QGTFTSDYSKYLDEKRAKEFVQWLMNTC
modifications: also: possible ring formation not assignable from text
B7: oxyntomodulin derivative of SEQ ID NO. 31 (peptide)
peptide: Y[Aib]QGTFTSDYSKYLDEKRAKEFVQWLMNTC
B8: oxyntomodulin derivative of SEQ ID NO. 28 (peptide)
peptide: H[Aib]QGTFTSDYSKYLDEKRAKEFVQWLMNT
B9: oxyntomodulin derivative of SEQ ID NO. 17 (peptide)
peptide: HSQGTFTSDYSRYLDEEAVRLFIEWIRNTKRNRNNIA
modifications: not fully specified (residue 1, N-terminus); also: N-terminal CA (4-imidazoacetyl), whether it replaces His1 not given here
B10: oxyntomodulin derivative of SEQ ID NO. 6 (peptide)
peptide: {Acetyl(2-(4-imidazolyl))}-HGEGTFTSDLSRQMEEEAVRLFIEWAAHSQGTFTSDYSKYLD

Non-standard residues stand in square brackets, D forms with d. No end group written: not given here. *: point of attachment. Acetyl(2-(4-imidazolyl)) = O=C(Cc1c[nH]cn1)*; Aib = CC(C)(N)C(=O)O

The first assay concerns the target human GLP-1 receptor (human, UniProt P43220). Put plainly: cell-based or functional assay.
With B1, the “EC50 (nM), cAMP, CHO/GLP-1R” value is 1.43 nM.
As for B2, the “EC50 (nM), cAMP, CHO/GLP-1R” value is more than 1000 nM.
For the molecule B3, the “EC50 (nM), cAMP, CHO/GLP-1R” value is more than 1000 nM.
On the same count and under the same terms, as for B4, the figure is 2.46 nM.
The same measure, in the same setting: as for B5, the figure is 2.2 nM; as for B6, 1.9 nM; as for B7, 12.5 nM.

In the next assay the target is human glucagon receptor (human, UniProt P47871). Put plainly: cell-based or functional assay.
On to B2, for which the “EC50 (nM), cAMP, CHO/GCGR” value was more than 1000 nM.
Same read-out and setting: as for B3, the figure is more than 1000 nM; as for B8, 0.3 nM; as for B4, 5.8 nM.
The same measure, in the same setting: as for B5, the figure is 80.2 nM; as for B9, more than 1000 nM.
On the same count and under the same terms, as for B10, the figure is more than 1000 nM; as for B7, 1 nM.
